The target of the test is T1, recombinant, fluorescently labeled CD19 (Homo sapiens, UniProt P15391, fluorescent label (dye and site not stated)).
T1 construct: CD19, B-lymphocyte antigen; In the functional rows this molecule stands for CD19 on JeKo-1 WT cells
The experiment in a line: flow cytometry on cells; recombinant, fluorescently labeled CD19 on CAR-transduced T cells, compared to nontransduced T cells; methods in the Supporting Information. Particulars: one partner purified.

T1 sequence (P15391 21-277): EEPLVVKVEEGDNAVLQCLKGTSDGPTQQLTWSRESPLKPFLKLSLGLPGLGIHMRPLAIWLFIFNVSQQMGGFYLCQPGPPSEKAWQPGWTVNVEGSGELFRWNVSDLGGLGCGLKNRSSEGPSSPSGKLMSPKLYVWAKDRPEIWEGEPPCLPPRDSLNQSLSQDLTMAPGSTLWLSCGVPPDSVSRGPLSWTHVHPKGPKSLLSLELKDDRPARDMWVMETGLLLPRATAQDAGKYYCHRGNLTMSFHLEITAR

B1: G228C CD19-CysCAR (anti-CD19 CAR with the scFv FMC63, CD19-41BB-CAR format, G228C) (scFv, V domains shown)
VH: EVKLQESGPGLVAPSQSLSVTCTVSGVSLPDYGVSWIRQPPRKGLEWLGVIWGSETTYYNSALKSRLTIIKDNSKSQVFLKMNSLQTDDTAIYYCAKHYYYGCSYAMDYWGQGTSVTVSS
VL: DIQMTQTTSSLSASLGDRVTISCRASQDISKYLNWYQQKPDGTVKLLIYHTSRLHSGVPSRFSGSGSGTDYSLTISNLEQEDIATYFCQQGNTLPYTFGGGTKLEIT
notes: scFv FMC63 (light chain domain, linker, heavy chain domain); CD8-derived hinge and transmembrane domains (Kymriah format); 4-1BB costimulatory domain (Kymriah format); Chimeric antigen receptor on T cells; source: primary human T cells, lentiviral transduction, on cells
Take B1: the binding result is reported as “binds”.

The record behind these values is paper PMC12550615, “Bifunctional Cysteine-Engineered CAR‑T Cells Enable Thiol-Mediated Targeting to Overcome Antigen Escape in B Cell Lymphoma” (ACS Central Science, 2025).
